Results: publication PMC10943247 (2024)

How the values were obtained:
[1] = molecular target: CRL2^FEM1B complex with FEM1B^F549T, unneddylated (human, UniProt Q13617 1-745; P62877 1-108; Q15370 1-104; Q15369 17-112; Q9UK73 1-627, F549T)
[2] = molecular target: CRL2^FEM1B complex with FEM1B^Y275R/L278R, unneddylated (human, UniProt Q13617 1-745; P62877 1-108; Q15370 1-104; Q15369 17-112; Q9UK73 1-627, Y275R | L278R)
[3] = molecular target: CRL2^FEM1B complex with FEM1B^Δ546-553 (FEM1B^DEL), unneddylated (human, UniProt Q13617 1-745; P62877 1-108; Q15370 1-104; Q15369 17-112; Q9UK73 1-627, Δ546-553)
[4] = molecular target: CRL2^FEM1B complex with FEM1B^F549R, unneddylated (human, UniProt Q13617 1-745; P62877 1-108; Q15370 1-104; Q15369 17-112; Q9UK73 1-627, F549R)
[5] = molecular target: CRL2^FEM1B complex with FEM1B^F549S, unneddylated (human, UniProt Q13617 1-745; P62877 1-108; Q15370 1-104; Q15369 17-112; Q9UK73 1-627, F549S)

koff [1]: 0.00184 s⁻¹
koff [2]: 0.000653 s⁻¹
koff [3]: 0.000955 s⁻¹
koff [4]: 0.00141 s⁻¹
koff [5]: 0.00178 s⁻¹
B1: FNIP1/FLCN complex (complex)
chain 1: MAPTLFQKLFSKRTGLGAPGRDARDPDCGFSWPLPEFDPSQIRLIVYQDCERRGRNVLFDSSVKRRNEDISVSKLGSDAQVKVFGKCCQLKPGGDSSSSLDSSVTSSSDIKDQCLKYQGSRCSSDANMLGEMMFGSVAMSYKGSTLKIHQIRSPPQLMLSKVFTARTGSSICGSLNTLQDSLEFINQDNNTLKADNNTVINGLLGNIGLSQFCSPRRAFSEQGPLRLIRSASFFAVHSNPMDMPGRELNEDRDSGIARSASLSSLLITPFPSPNSSLTRSCASSYQRRWRRSQTTSLENGVFPRWSIEESFNLSDESCGPNPGIVRKKKIAIGVIFSLSKDEDENNKFNEFFFSHFPLFESHMNKLKSAIEQAMKMSRRSADASQRSLAYNRIVDALNEFRTTICNLYTMPRIGEPVWLTMMSGTPEKNHLCYRFMKEFTFLMENASKNQFLPALITAVLTNHLAWVPTVMPNGQPPIKIFLEKHSSQSVDMLAKTHPYNPLWAQLGDLYGAIGSPVRLARTVVVGKRQDMVQRLLYFLTYFIRCSELQETHLLENGEDEAIVMPGTVITTTLEKGEIEESEYVLVTMHRNKSSLLFKESEEIRTPNCNCKYCSHPLLGQNVENISQQEREDIQNSSKELLGISDECQMISPSDCQEENAVDVKQYRDKLRTCFDAKLETVVCTGSVPVDKCALSESGLESTEETWQSEKLLDSDSHTGKAMRSTGMVVEKKPPDKIVPASFSCEAAQTKVTFLIGDSMSPDSDTELRSQAVVDQITRHHTKPLKEERGAIDQHQETKQTTKDQSGESDTQNMVSEEPCELPCWNHSDPESMSLFDEYFNDDSIETRTIDDVPFKTSTDSKDHCCMLEFSKILCTKNNKQNNEFCKCIETVPQDSCKTCFPQQDQRDTLSILVPHGDKESSDKKIAVGTEWDIPRNESSDSALGDSESEDTGHDMTRQVSSYYGGEQEDWAEEDEIPFPGSKLIEVSAVQPNIANFGRSLLGGYCSSYVPDFVLQGIGSDERFRQCLMSDLSHAVQHPVLDEPIAEAVCIIADMDKWTVQVASSQRRVTDNKLGKEVLVSSLVSNLLHSTLQLYKHNLSPNFCVMHLEDRLQELYFKSKMLSEYLRGQMRVHVKELGVVLGIESSDLPLLAAVASTHSPYVAQILL
chain 2: MNAIVALCHFCELHGPRTLFCTEVLHAPLPQGDGNEDSPGQGEQAEEEEGGIQMNSRMRAHSPAEGASVESSSPGPKKSDMCEGCRSLAAGHPGYISHDKETSIKYVSHQHPSHPQLFSIVRQACVRSLSCEVCPGREGPIFFGDEQHGFVFSHTFFIKDSLARGFQRWYSIITIMMDRIYLINSWPFLLGKVRGIIDELQGKALKVFEAEQFGCPQRAQRMNTAFTPFLHQRNGNAARSLTSLTSDDNLWACLHTSFAWLLKACGSRLTEKLLEGAPTEDTLVQMEKLADLEEESESWDNSEAEEEEKAPVLPESTEGRELTQGPAESSSLSGCGSWQPRKLPVFKSLRHMRQVLGAPSFRMLAWHVLMGNQVIWKSRDVDLVQSAFEVLRTMLPVGCVRIIPYSSQYEEAYRCNFLGLSPHVQIPPHVLSSEFAVIVEVHAAARSTLHPVGCEDDQSLSKYEFVVTSGSPVAADRVGPTILNKIEAALTNQNLSVDVVDQCLVCLKEEWMNKVKVLFKFTKVDSRPKEDTQKLLSILGASEEDNVKLLKFWMTGLSKTYKSHLMSTVRSPTASESRN
